Molecular target: T1, recombinant human IL-13Rα2Fc chimera protein (R&D) (human, UniProt Q14627 27-343, biotinylated (sulfo-NHS-biotin) in the immunofluorescence assay only)
T1 construct: Bought protein (R&D); It was used biotinylated in the IFA and unlabelled in the migration assay; also called huIL-13Rα2Fc chimeric protein; HuIL-13Rα2Fc; Fc part of the bought chimera not given
T1 sequence (looked up): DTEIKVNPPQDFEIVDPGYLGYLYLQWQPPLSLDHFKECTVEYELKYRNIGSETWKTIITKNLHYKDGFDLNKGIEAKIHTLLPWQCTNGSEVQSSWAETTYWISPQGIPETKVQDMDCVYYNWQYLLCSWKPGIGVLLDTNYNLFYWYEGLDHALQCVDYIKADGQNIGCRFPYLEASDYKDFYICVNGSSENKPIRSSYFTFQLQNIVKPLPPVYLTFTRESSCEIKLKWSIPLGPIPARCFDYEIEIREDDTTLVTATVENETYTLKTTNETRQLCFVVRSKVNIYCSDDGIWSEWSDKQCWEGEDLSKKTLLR
Assay: method not stated; affinity for recombinant IL-13Rα2Fc compared with the previously cloned scFv

B1: IL-13Rα2 scFv (improved scFv-IL-13Rα2) (scFv)
scFv: QVQLVQSGAEVKKPGASVKVSCKASGYTFTSYAMHWVRQAPGQRLEWMGWINAGNGNTKYSQKFQGRVTITRDTSASTAYMELSSLRSEDTAVYYCARMNHMIPLKAWGQGTLVTVSSGGGGSGGGGSGGSALAIQMTQSPSSLSASVGDRVTITCRASQGIRNDLGWYQQKPGKAPKLLIYAASSLQSGVPSRFSGSGSGTDFTLTISSLQPEDFATYYCLQMYNYRTFGQGTKLEIKRA
notes: also called clone derived protein
Question: For B1, which “fold higher binding affinity compared to the previously cloned scFv ECD-IL-13Rα2 (Kioi et al. 2008)” value is on record?
Answer: Its value is greater than 4 fold.

Source: patent US20240189351A1 (US Dept. of Health and Human Services, published 2024)
